Source: patent publication US20240207421A1, “NERVE TARGETING PEPTIDES AND METHODS OF USE” (ALUME BIOSCIENCES, INC., priority 2020, published 2024)

How the values were obtained:
[1] = molecular target: T1, Human Myelin Basic Protein (Homo sapiens, UniProt P02686); test: phage display R3, NGS count
Human Nidogen-2 = molecular target: T2, Human Nidogen-2 (Homo sapiens, UniProt Q14112); test: Phage display library screening (Example 1, Power BI analysis), binding to Human Nidogen-2; conditions: R3 Nidogen-2, NextGen sequencing count of phage sequences distinct for this target
T2 construct: purchased Novus NBP2-10365
T2 sequence (Q14112 31-1375): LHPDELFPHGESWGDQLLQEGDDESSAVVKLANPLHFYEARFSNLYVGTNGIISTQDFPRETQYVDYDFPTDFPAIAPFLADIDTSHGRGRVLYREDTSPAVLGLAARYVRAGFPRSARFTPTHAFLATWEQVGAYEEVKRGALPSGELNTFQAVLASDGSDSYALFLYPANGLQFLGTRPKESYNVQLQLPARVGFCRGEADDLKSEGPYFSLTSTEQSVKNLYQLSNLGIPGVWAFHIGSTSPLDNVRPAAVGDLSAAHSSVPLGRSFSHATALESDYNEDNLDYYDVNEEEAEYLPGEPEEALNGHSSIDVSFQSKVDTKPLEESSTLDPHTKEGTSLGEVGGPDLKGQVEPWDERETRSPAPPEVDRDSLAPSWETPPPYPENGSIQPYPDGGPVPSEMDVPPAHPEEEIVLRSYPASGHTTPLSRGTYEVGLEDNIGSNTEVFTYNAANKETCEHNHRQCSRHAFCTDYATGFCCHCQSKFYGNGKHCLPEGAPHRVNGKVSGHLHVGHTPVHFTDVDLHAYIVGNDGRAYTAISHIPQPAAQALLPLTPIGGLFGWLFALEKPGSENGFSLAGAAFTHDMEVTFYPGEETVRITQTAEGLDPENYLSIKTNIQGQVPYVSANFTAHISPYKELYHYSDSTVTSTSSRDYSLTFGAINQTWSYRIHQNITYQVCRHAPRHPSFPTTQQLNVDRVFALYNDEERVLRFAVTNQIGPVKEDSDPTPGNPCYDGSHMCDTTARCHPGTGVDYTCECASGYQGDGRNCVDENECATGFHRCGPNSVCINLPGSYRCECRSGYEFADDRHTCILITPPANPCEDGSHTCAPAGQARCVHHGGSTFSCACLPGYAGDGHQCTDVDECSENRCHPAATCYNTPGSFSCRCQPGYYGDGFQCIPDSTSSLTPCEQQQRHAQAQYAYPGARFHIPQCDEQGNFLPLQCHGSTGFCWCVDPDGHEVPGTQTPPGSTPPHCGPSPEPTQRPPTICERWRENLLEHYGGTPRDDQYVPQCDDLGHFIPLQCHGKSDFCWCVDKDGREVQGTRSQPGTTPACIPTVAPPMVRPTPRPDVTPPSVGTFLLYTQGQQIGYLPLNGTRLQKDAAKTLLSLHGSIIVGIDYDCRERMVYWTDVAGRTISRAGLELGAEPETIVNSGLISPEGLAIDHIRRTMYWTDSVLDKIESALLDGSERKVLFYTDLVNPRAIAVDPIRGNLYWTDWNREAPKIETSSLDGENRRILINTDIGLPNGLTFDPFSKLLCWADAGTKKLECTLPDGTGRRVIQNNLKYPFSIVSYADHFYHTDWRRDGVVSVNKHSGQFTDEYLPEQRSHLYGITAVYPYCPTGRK
Text: (§1) Phage display library screens were used to identify peptides that bind to target proteins that are expressed in human nerves and could therefore be useful for systemic in-vivo labeling of nerves during fluorescence assisted surgery. Specifically, m13 phage libraries expressing 7 or 12 random amino acid peptides, or a cyclic peptide CX7C, on the N-terminus of the minor coat protein pIII (New England Biolabs) were processed through multiple rounds of selection for binding to target proteins expressed in peripheral nerve (Table 1).
(§2) The library was processed through up to 4 binding and wash cycles. For selection, phage libraries were incubated for up to 24 hours at 4° C. in 96 well plates that had been coated with one of the target proteins. Plates were then washed with PBS and phage were eluted using 0.2M glycine pH 2.0. Phage supernatants where then neutralized with Tris pH 9.0 prior to plating on TG1 bacteria and LB agar plates. Colonies were counted to determine titer followed by DNA preparation of pools of phage and NextGen sequencing. After rounds of selection, phage were pooled and amplified for iterative selection. Phage that were bound at each round were sequenced. NextGen sequencing of pools after 2, 3 and 4 rounds of selection was used to isolate candidate sequences that were analyzed further to identify those that specifically bound each unique target protein.
(§3) DNA sequences were trimmed of all vector amino acids and imported as a peptide dataset into Power BI. Power BI was used to identify phage display sequences for specific columns (corresponding to each target protein) in order to identify sequences that were distinct for each protein target. The Power BI code evaluated each individual sequence for each protein target against the sequences present in other protein targets in a test for uniqueness. Using the distinct flag, the Power BI code generated a filtered peptide dataset that excluded any peptide sequence that occur in more than one column which identified a specific protein target. This method therefore identified candidate peptide sequences showing selective binding to an individual target protein. Unique sequences in each column were sorted by individual counts such that the most selected sequences appeared at the top of the column.

Human Nidogen-2 (human) [2] = molecular target: Human Nidogen-2 (human) (UniProt Q14112); test: phage display, NGS count
Human MPZ (human) [3] = molecular target: Human MPZ (human) (UniProt P25189); test: phage display R3, NGS count
Human MPZ (human) [4] = molecular target: Human MPZ (human) (UniProt P25189); test: phage display, NGS count
[5] = molecular target: T1, Human Myelin Basic Protein; test: phage display, NGS count
Human Nidogen-2 (human) [6] = molecular target: Human Nidogen-2 (human) (UniProt Q14112); test: phage display R3, NGS count
Human Myelin PLP [7] = test: Phage display library screening (Example 1, Power BI analysis), binding to Human Myelin PLP; conditions: R3 Myelin PLP, NextGen sequencing count of phage sequences distinct for this target
Text: as §1, §2, §3

Human Myelin PLP [8] = test: Phage display library screening (Example 2, Python script analysis), binding to Human Myelin PLP; conditions: combined unique sequence count, Python/R script analysis
How it was run: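 Target protein-coated wells were panned with M13 phage libraries displaying 7- or 12-mer random or cyclic CX7C peptides on pIII, over up to 4 rounds (up to 24 h, 4° C), with glycine pH 2.0 elution. Pools from rounds 2–4 were NextGen-sequenced. Peptides specific to each target were ranked by unique sequence count.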

[9] = molecular target: T1, Human Myelin Basic Protein; test: phage display R3, NGS count; remark: listed apart in the source
[10] = molecular target: T1, Human Myelin Basic Protein; test: phage display, NGS count; remark: listed apart in the source

T1 sequence (P02686 135-304 limits assumed): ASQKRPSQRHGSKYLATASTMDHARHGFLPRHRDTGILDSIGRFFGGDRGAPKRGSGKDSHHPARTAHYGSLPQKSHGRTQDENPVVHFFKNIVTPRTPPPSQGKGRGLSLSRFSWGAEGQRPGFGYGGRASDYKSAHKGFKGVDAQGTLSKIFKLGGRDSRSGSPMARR
Sequence of Human MPZ (human) (P25189 30-153 limits assumed): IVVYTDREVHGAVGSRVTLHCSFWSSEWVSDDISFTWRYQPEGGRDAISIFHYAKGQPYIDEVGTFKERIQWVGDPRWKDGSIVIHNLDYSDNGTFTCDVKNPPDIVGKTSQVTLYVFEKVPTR

LRPISHE (peptide)
Count [1]: 12

ACGEGEADVC (R3 Nidogen-2-binding peptide)
Count (Human Nidogen-2): 26

WLAAGSQ (peptide)
Count (Human Nidogen-2 (human) [2]): 6

NDTKTPS (peptide)
Count [1]: 19

NILSQVN (peptide)
Count (Human Nidogen-2 (human) [2]): 6

TSPWELR (peptide)
Count (Human MPZ (human) [3]): 107 | Count (Human MPZ (human) [4]): 108

ATYNMSQ (peptide)
Count (Human Nidogen-2 (human) [2]): 7

YNHTMMY (peptide)
Count (Human Nidogen-2 (human) [2]): 7

AGFPPNT (peptide)
Count [1]: 10

DPWVMLR (peptide)
Count [1]: 11 | Count [5]: 11

WPSISRP (peptide)
Count (Human MPZ (human) [3]): 57 | Count (Human MPZ (human) [4]): 58

ACTVHKWDNC (R3 Nidogen-2-binding peptide)
Count (Human Nidogen-2): 11

GLRTMEP (peptide)
Count (Human Nidogen-2 (human) [2]): 7

ALYLPGR (peptide)
Count (Human Nidogen-2 (human) [2]): 7

ACEPRSLANC (R3 Nidogen-2-binding peptide)
Count (Human Nidogen-2): 11

TESLFPH (peptide)
Count (Human MPZ (human) [3]): 50 | Count (Human MPZ (human) [4]): 52

IKPPYTH (peptide)
Count (Human MPZ (human) [3]): 78 | Count (Human MPZ (human) [4]): 82

VLKNNPT (peptide)
Count (Human MPZ (human) [3]): 86 | Count (Human MPZ (human) [4]): 87

KAIHPMRG (R3 Nidogen-2-binding peptide)
Count (Human Nidogen-2): 11

QNTGLKW (peptide)
Count [1]: 11 | Count [5]: 11

VLTKPMP (peptide)
Count (Human MPZ (human) [3]): 56 | Count (Human MPZ (human) [4]): 56

QIGVLPS (peptide)
Count [1]: 11

KMAGHTV (peptide)
Count (Human MPZ (human) [3]): 51 | Count (Human MPZ (human) [4]): 54

TIASLLV (peptide)
Count (Human Nidogen-2 (human) [2]): 6

SHSPGNK (peptide)
Count (Human MPZ (human) [3]): 67 | Count (Human MPZ (human) [4]): 79

QTLRPKQ (peptide)
Count (Human Nidogen-2 (human) [2]): 6

GYWRNAL (peptide)
Count (Human Nidogen-2 (human) [6]): 11

EAMMHRN (peptide)
Count (Human Nidogen-2 (human) [2]): 6

GLTPKLF (peptide)
Count (Human MPZ (human) [3]): 48

QMDAKHM (peptide)
Count (Human Nidogen-2 (human) [2]): 6

ALPLSAS (peptide)
Count (Human MPZ (human) [3]): 196 | Count (Human MPZ (human) [4]): 197

SMWSQFR (R3 Myelin PLP-binding peptide)
Count (Human Myelin PLP [7]): 34 | Count (Human Myelin PLP [8]): 34

GPLRMAT (peptide)
Count (Human MPZ (human) [3]): 50 | Count (Human MPZ (human) [4]): 51

ACPENKSKHC (R3 Nidogen-2-binding peptide)
Count (Human Nidogen-2): 13

SAHAKHH (peptide)
Count (Human MPZ (human) [3]): 51 | Count (Human MPZ (human) [4]): 52

RFELPAP (R3 Myelin PLP-binding peptide)
Count (Human Myelin PLP [7]): 52 | Count (Human Myelin PLP [8]): 52

LALYARM (R3 Myelin PLP-binding peptide)
Count (Human Myelin PLP [7]): 44 | Count (Human Myelin PLP [8]): 44

TPWLPTI (peptide)
Count (Human Nidogen-2 (human) [2]): 7

YTPMGTG (R3 Myelin PLP-binding peptide)
Count (Human Myelin PLP [7]): 50 | Count (Human Myelin PLP [8]): 50

LVHPFHG (peptide)
Count (Human Nidogen-2 (human) [2]): 8

MQTQGRV (peptide)
Count [1]: 12

HRLPWHH (peptide)
Count [1]: 10 | Count [5]: 10

GLIRHYT (R3 Myelin PLP-binding peptide)
Count (Human Myelin PLP [7]): 66 | Count (Human Myelin PLP [8]): 66

LSIRGLT (peptide)
Count (Human Nidogen-2 (human) [2]): 6

TMASPAK (peptide)
Count (Human MPZ (human) [3]): 52 | Count (Human MPZ (human) [4]): 58

ARMAFSL (peptide)
Count (Human Nidogen-2 (human) [2]): 7

SHLASRP (peptide)
Count (Human MPZ (human) [3]): 97

RVPHSRT (peptide)
Count (Human MPZ (human) [3]): 49

ETTRNYG (peptide)
Count (Human MPZ (human) [3]): 68 | Count (Human MPZ (human) [4]): 69

RHNVEFS (R3 Myelin PLP-binding peptide)
Count (Human Myelin PLP [7]): 42 | Count (Human Myelin PLP [8]): 42

WTMKPNY (peptide)
Count [1]: 13 | Count [5]: 14

HSRLPTP (peptide)
Count (Human Nidogen-2 (human) [2]): 13

DPITRLK (peptide)
Count (Human MPZ (human) [3]): 92 | Count (Human MPZ (human) [4]): 93

DGKNTSN (peptide)
Count [1]: 10

SPDRTSL (peptide)
Count [1]: 12 | Count [5]: 12

HPSTWHK (peptide)
Count [1]: 18

DTSRTME (R3 Myelin PLP-binding peptide)
Count (Human Myelin PLP [7]): 33 | Count (Human Myelin PLP [8]): 33

LHITPEV (peptide)
Count (Human Nidogen-2 (human) [2]): 6

QLLESRT (peptide)
Count (Human Nidogen-2 (human) [2]): 6

KAIHPMRG (peptide)
Count (Human Nidogen-2 (human) [6]): 11

LSSPLSL (peptide)
Count (Human MPZ (human) [3]): 56 | Count (Human MPZ (human) [4]): 56

DRNSVFW (peptide)
Count (Human MPZ (human) [3]): 50 | Count (Human MPZ (human) [4]): 50

GYWRNAL (R3 Nidogen-2-binding peptide)
Count (Human Nidogen-2): 11

FKMPIPT (R3 Myelin PLP-binding peptide)
Count (Human Myelin PLP [7]): 34 | Count (Human Myelin PLP [8]): 34

AWSTSSV (peptide)
Count [1]: 12 | Count [5]: 12

ATLKPYR (R3 Myelin PLP-binding peptide)
Count (Human Myelin PLP [7]): 68 | Count (Human Myelin PLP [8]): 68

ILLPSLN
Count [9]: 13

SKSDAWR
Count [9]: 14

SVLRMLN
Count [9]: 16

EHGYYKV
Count [10]: 17 | Count [9]: 16

LPMRILT
Count [10]: 16 | Count [9]: 16

AITSRNA
Count [9]: 15
